Laboratory results published in patent US20260022184.

T1: CM2
T1 chain: MVLSAVTASG

T2: CM6
T2 chain: MVPSAVTASG

T3: CM5
T3 chain: MVLSAPTASG

T4: CM9
T4 chain: MVVSALTASG

T5: CM8
T5 chain: MVASALTASG

T6: CM10
T6 chain: MVPSALTVSG

T7: CM7
T7 chain: MVPSAYTASG

B1: recombinant human MMP2 (protein)
chain: YNFFPRKPKWDKNQITYRIIGYTPDLDPETVDDAFARAFQVWSDVTPLRFSRIHDGEADIMINFGRWEHGDGYPFDGKDGLLAHAFAPGTGVGGDSHFDDDELWTLGEGQVVRVKYGNADGEYCKFPFLFNGKEYNSCTDTGRSDGFLWCSTTYNFEKDGKYGFCPHEALFTMGGNAEGQPCKFPFRFQGTSYDSCTTEGRTDGYRWCGTTEDYDRDKKYGFCPETAMSTVGGNSEGAPCVFPFTFLGNKYESCTSAGRSDGKMWCATTANYDDDRKWGFCPDQGYSLFLVAAHEFGHAMGLEHSQDPGALMAPIYTYTKNFRLSQDDIKGIQELYGASPDIDLGTGPTPTLGPVTPEICKQDIVFDGIAQIRGEIFFFKDRFIWRTVTPRDKPMGPLLVATFWPELPEKIDAVYEAPQEEKAVFFAGNEYWIYSASTLERGYPKPLTSLGLPPDVQRVDAAFNWSKNKKTYIFAGDKFWRYNEVKKKMDPGFPKLIADAWNAIPDNLDAVVDLQGGGHSYFFKGAYYLKLENQSLKSVKFGSIKSDWLGC
B2: recombinant human MMP9 (protein)
chain: MRTPRCGVPDLGRFQTFEGDLKWHHHNITYWIQNYSEDLPRAVIDDAFARAFALWSAVTPLTFTRVYSRDADIVIQFGVAEHGDGYPFDGKDGLLAHAFPPGPGIQGDAHFDDDELWSLGKGVVVPTRFGNADGAACHFPFIFEGRSYSACTTDGRSDGLPWCSTTANYDTDDRFGFCPSERLYTQDGNADGKPCQFPFIFQGQSYSACTTDGRSDGYRWCATTANYDRDKLFGFCPTRADSTVMGGNSAGELCVFPFTFLGKEYSTCTSEGRGDGRLWCATTSNFDSDKKWGFCPDQGYSLFLVAAHEFGHALGLDHSSVPEALMYPMYRFTEGPPLHKDDVNGIRHLYGPRPEPEPRPPTTTTPQPTAPPTVCPTGPPTVHPSERPTAGPTGPPSAGPTGPPTAGPSTATTVPLSPVDDACNVNIFDAIAEIGNQLYLFKDGKYWRFSEGRGSRPQGPFLIADKWPALPRKLDSVFEERLSKKLFFFSGRQVWVYTGASVLGPRRLDKLGLGADVAQVTGALRSGRGKMLLFSGRRLWRFDVKAQMVDPRSASEVDRMFPGVPLDTHDVFQYREKAYFCQDRFYWRVSSRSELNQVDQVGYVTYDILQCPED

Experiments:
CM2 = target: T1, CM2
CM6 = target: T2, CM6
CM5 = target: T3, CM5
CM9 = target: T4, CM9
CM8 = target: T5, CM8
CM10 = target: T6, CM10
CM7 = target: T7, CM7

SB1902-C2, sequence (chain, as listed by the source, chain 1 of 2): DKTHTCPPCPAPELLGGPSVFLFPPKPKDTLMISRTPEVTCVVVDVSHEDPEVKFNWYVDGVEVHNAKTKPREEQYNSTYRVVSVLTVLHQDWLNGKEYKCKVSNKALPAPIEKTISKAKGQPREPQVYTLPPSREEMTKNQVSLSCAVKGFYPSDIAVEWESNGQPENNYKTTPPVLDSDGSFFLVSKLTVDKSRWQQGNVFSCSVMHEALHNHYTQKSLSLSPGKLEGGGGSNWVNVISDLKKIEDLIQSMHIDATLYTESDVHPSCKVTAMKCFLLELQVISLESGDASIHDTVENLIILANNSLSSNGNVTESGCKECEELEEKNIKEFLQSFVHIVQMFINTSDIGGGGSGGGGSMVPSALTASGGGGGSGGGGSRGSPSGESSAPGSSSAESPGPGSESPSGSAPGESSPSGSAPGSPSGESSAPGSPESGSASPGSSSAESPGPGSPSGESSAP
SB1902-C2, sequence (chain, as listed by the source, chain 2 of 2): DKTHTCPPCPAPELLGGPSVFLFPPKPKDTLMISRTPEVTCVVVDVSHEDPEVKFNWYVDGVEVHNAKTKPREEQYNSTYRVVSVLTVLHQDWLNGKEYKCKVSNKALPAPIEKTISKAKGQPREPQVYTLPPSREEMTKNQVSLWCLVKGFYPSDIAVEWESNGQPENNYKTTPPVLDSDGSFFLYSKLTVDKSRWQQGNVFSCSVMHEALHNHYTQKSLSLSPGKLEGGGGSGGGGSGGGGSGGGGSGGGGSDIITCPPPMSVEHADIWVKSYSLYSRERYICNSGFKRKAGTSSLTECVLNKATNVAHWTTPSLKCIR
SB1902-C5, sequence (chain, as listed by the source, chain 1 of 2): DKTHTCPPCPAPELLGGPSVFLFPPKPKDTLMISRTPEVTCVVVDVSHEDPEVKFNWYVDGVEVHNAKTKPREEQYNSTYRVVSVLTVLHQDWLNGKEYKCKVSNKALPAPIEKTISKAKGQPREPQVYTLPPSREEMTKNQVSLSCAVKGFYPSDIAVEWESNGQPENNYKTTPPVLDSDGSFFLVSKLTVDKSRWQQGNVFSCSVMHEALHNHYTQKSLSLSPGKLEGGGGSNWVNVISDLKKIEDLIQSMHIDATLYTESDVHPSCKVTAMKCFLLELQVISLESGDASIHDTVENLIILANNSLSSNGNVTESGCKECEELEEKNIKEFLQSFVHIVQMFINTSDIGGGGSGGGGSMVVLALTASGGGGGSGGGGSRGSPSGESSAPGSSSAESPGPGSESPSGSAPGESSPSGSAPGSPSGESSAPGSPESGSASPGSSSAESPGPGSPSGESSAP
SB1902-C5, sequence (chain, as listed by the source, chain 2 of 2): as the sequence (chain, as listed by the source, chain 2 of 2) above
SB1902-C4, sequence (chain, as listed by the source, chain 1 of 2): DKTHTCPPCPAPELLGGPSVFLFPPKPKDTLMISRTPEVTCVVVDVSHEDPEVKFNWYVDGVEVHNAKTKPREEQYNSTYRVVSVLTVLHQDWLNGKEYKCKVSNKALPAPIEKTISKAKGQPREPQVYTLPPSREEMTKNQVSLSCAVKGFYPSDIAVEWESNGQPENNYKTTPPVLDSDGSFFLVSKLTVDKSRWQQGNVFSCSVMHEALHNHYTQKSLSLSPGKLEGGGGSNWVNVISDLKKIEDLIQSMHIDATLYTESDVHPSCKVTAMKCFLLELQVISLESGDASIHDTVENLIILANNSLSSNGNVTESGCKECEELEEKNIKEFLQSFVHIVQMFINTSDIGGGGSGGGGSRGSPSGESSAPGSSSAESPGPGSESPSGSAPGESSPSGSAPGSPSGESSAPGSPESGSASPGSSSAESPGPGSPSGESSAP
SB1902-C4, sequence (chain, as listed by the source, chain 2 of 2): as the sequence (chain, as listed by the source, chain 2 of 2) above

Protein | in vitro protease digestion (data not shown) (CM2) | in vitro protease digestion (data not shown) (CM6) | in vitro protease digestion (data not shown) (CM5) | in vitro protease digestion (data not shown) (CM9) | in vitro protease digestion (data not shown) (CM8) | in vitro protease digestion, polyacrylamide gel (SB1902-C5) | in vitro protease digestion (data not shown) (CM10) | in vitro protease digestion (data not shown) (CM7) | digestion efficiency by SDS-PAGE (1 µg activated MMP2, 250 µg prodrug, 37° C., 5 hrs) (SB1902-C2) | in vitro protease digestion, polyacrylamide gel (SB1902-C2) | in vitro protease digestion, polyacrylamide gel (SB1902-C4)
B1 | The other cleavable moieties (such as CM2, CM5-CM10) was also cleavable in vitro by both MMP2 and MMP9 (data not shown) | The other cleavable moieties (such as CM2, CM5-CM10) was also cleavable in vitro by both MMP2 and MMP9 (data not shown) | The other cleavable moieties (such as CM2, CM5-CM10) was also cleavable in vitro by both MMP2 and MMP9 (data not shown) | The other cleavable moieties (such as CM2, CM5-CM10) was also cleavable in vitro by both MMP2 and MMP9 (data not shown) | The other cleavable moieties (such as CM2, CM5-CM10) was also cleavable in vitro by both MMP2 and MMP9 (data not shown) | The mutated substrate CM4 was cleavable in vitro by both MMP2 and MMP9 enzymes, with an enzyme dose-dependent manner | The other cleavable moieties (such as CM2, CM5-CM10) was also cleavable in vitro by both MMP2 and MMP9 (data not shown) | The other cleavable moieties (such as CM2, CM5-CM10) was also cleavable in vitro by both MMP2 and MMP9 (data not shown) | about 90% of the prodrug SB1902-C2 was digested | The mutated substrate CM1 was cleavable in vitro by both MMP2 and MMP9 enzymes, with an enzyme dose-dependent manner | the non-cleavable G4S linker in SB1902-C4 was resistant to both MMP2 and MMP9 enzyme digestion
B2 | The other cleavable moieties (such as CM2, CM5-CM10) was also cleavable in vitro by both MMP2 and MMP9 (data not shown) | The other cleavable moieties (such as CM2, CM5-CM10) was also cleavable in vitro by both MMP2 and MMP9 (data not shown) | The other cleavable moieties (such as CM2, CM5-CM10) was also cleavable in vitro by both MMP2 and MMP9 (data not shown) | The other cleavable moieties (such as CM2, CM5-CM10) was also cleavable in vitro by both MMP2 and MMP9 (data not shown) | The other cleavable moieties (such as CM2, CM5-CM10) was also cleavable in vitro by both MMP2 and MMP9 (data not shown) | The mutated substrate CM4 was cleavable in vitro by both MMP2 and MMP9 enzymes, with an enzyme dose-dependent manner | The other cleavable moieties (such as CM2, CM5-CM10) was also cleavable in vitro by both MMP2 and MMP9 (data not shown) | The other cleavable moieties (such as CM2, CM5-CM10) was also cleavable in vitro by both MMP2 and MMP9 (data not shown) | – | The mutated substrate CM1 was cleavable in vitro by both MMP2 and MMP9 enzymes, with an enzyme dose-dependent manner | the non-cleavable G4S linker in SB1902-C4 was resistant to both MMP2 and MMP9 enzyme digestion
